In the supplement of paper PMC9112550, “Optimization of the antimicrobial peptide Bac7 by deep mutational scanning” (BMC Biology, 2022):

Tested on: Escherichia coli TOP10
Experiment: shrunken log2 fold change of peptide-encoding DNA abundance (4.5 h post-induction vs induction); higher = less antimicrobial activity (less host growth inhibition)
Conditions: time post-induction: 4.5 h; library: site-saturation at positions 5, 18, 19, 20
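Also: peptides expressed intracellularly from a pBAD plasmid library in pooled LB shake-flask culture, induced with 0.3% L-arabinose, DNA abundance read by NGS, three biological replicates, DESeq2 with apeglm shrinkage.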

Row | Sequence | shrunken log2 fold change
1 | RRIRWRPPRLPRPRPRPWPYPRP | -0.0146
2 | RRIRTRPPRLPRPRPRPIVMPRP | -0.114
3 | RRIRLRPPRLPRPRPRPPEHPRP | 0.188
4 | RRIRYRPPRLPRPRPRPKLQPRP | 0.124
5 | RRIRQRPPRLPRPRPRPEPVPRP | 0.0323
6 | RRIRARPPRLPRPRPRPSPDPRP | 0.553
7 | RRIRARPPRLPRPRPRPIMIPRP | -0.261
8 | RRIRFRPPRLPRPRPRPADVPRP | 0.258
9 | RRIRYRPPRLPRPRPRPIVIPRP | -0.0448
10 | RRIRYRPPRLPRPRPRPYDDPRP | -0.129
11 | RRIRNRPPRLPRPRPRPSHRPRP | 0.0906
12 | RRIRARPPRLPRPRPRPEAVPRP | 1.59
13 | RRIRNRPPRLPRPRPRPMRWPRP | 0.892
14 | RRIRMRPPRLPRPRPRPSEPPRP | 0.33
15 | RRIRARPPRLPRPRPRPWFYPRP | 0.0676
16 | RRIRERPPRLPRPRPRPQEHPRP | -0.179
17 | RRIRIRPPRLPRPRPRPTNMPRP | -0.427
18 | RRIRCRPPRLPRPRPRPYRIPRP | -0.263
19 | RRIRKRPPRLPRPRPRPESPPRP | 0.188
20 | RRIRTRPPRLPRPRPRPQCVPRP | -0.12
21 | RRIRMRPPRLPRPRPRPGPWPRP | 0.89
22 | RRIRYRPPRLPRPRPRPHNKPRP | -0.718
23 | RRIRPRPPRLPRPRPRPPRVPRP | 0.447
24 | RRIRDRPPRLPRPRPRPQVGPRP | 0.132
25 | RRIRIRPPRLPRPRPRPNAAPRP | -0.014

Row | Sequence | shrunken log2 fold change
26 | RRIRLRPPRLPRPRPRPLMNPRP | -0.253
27 | RRIRCRPPRLPRPRPRPMMNPRP | -0.278
28 | RRIRLRPPRLPRPRPRPPHMPRP | -0.0106
29 | RRIRNRPPRLPRPRPRPRFMPRP | -0.098
30 | RRIRGRPPRLPRPRPRPRELPRP | 1.31
31 | RRIRRRPPRLPRPRPRPAMSPRP | 0.157
32 | RRIRTRPPRLPRPRPRPAVFPRP | 0.271
33 | RRIRQRPPRLPRPRPRPFFIPRP | -0.365
34 | RRIRSRPPRLPRPRPRPKEVPRP | -0.00238
35 | RRIRYRPPRLPRPRPRPYIRPRP | -1.92e-05
36 | RRIRMRPPRLPRPRPRPSITPRP | -0.0273
37 | RRIRNRPPRLPRPRPRPTGRPRP | 0.0525
38 | RRIRERPPRLPRPRPRPAHEPRP | 0.0932
39 | RRIRNRPPRLPRPRPRPWPTPRP | 0.216
40 | RRIRGRPPRLPRPRPRPECGPRP | 1.71
41 | RRIRCRPPRLPRPRPRPPKQPRP | 0.123
42 | RRIRIRPPRLPRPRPRPWQHPRP | 0.0851
43 | RRIRKRPPRLPRPRPRPECRPRP | 0.313
44 | RRIRLRPPRLPRPRPRPNYMPRP | -0.251
45 | RRIRNRPPRLPRPRPRPICEPRP | 0.0602
46 | RRIRFRPPRLPRPRPRPTWKPRP | 0.32
47 | RRIRPRPPRLPRPRPRPIYMPRP | -0.306
48 | RRIRYRPPRLPRPRPRPADSPRP | -0.212
49 | RRIRIRPPRLPRPRPRPYTWPRP | -0.891
50 | RRIRMRPPRLPRPRPRPKYPPRP | -0.00805

Row | Sequence | shrunken log2 fold change
51 | RRIRHRPPRLPRPRPRPEDAPRP | -0.0619
52 | RRIRFRPPRLPRPRPRPCNIPRP | 0.0928
53 | RRIRKRPPRLPRPRPRPETPPRP | 1.89
54 | RRIRNRPPRLPRPRPRPPTSPRP | 0.298
55 | RRIRTRPPRLPRPRPRPQTTPRP | 0.0779
56 | RRIRDRPPRLPRPRPRPFSIPRP | 0.0044
57 | RRIRRRPPRLPRPRPRPVRNPRP | 0.146
58 | RRIRVRPPRLPRPRPRPLCFPRP | 0.258
59 | RRIRPRPPRLPRPRPRPYGGPRP | -0.153
60 | RRIRRRPPRLPRPRPRPFWQPRP | 0.0221
61 | RRIRHRPPRLPRPRPRPLDAPRP | -0.148
62 | RRIRHRPPRLPRPRPRPSPMPRP | -0.418
63 | RRIRQRPPRLPRPRPRPVDYPRP | 0.0237
64 | RRIRSRPPRLPRPRPRPRSLPRP | -0.0256
65 | RRIRNRPPRLPRPRPRPVYRPRP | -0.815
66 | RRIRDRPPRLPRPRPRPCDYPRP | -0.0874
67 | RRIRLRPPRLPRPRPRPCMTPRP | 0.0964
68 | RRIRSRPPRLPRPRPRPHFWPRP | 0.0758
69 | RRIRKRPPRLPRPRPRPVHPPRP | 0.189
70 | RRIRVRPPRLPRPRPRPQLQPRP | -0.104
71 | RRIRFRPPRLPRPRPRPRQAPRP | 0.128
72 | RRIRVRPPRLPRPRPRPANWPRP | 0.224
73 | RRIRSRPPRLPRPRPRPYREPRP | 0.0503
74 | RRIRTRPPRLPRPRPRPRHYPRP | -0.162
75 | RRIRPRPPRLPRPRPRPSQFPRP | -0.0669

Row | Sequence | shrunken log2 fold change
76 | RRIRNRPPRLPRPRPRPDDCPRP | -0.108
77 | RRIRIRPPRLPRPRPRPFMCPRP | -0.103
78 | RRIRHRPPRLPRPRPRPQPHPRP | -0.0753
79 | RRIRIRPPRLPRPRPRPEGMPRP | -0.0787
80 | RRIRIRPPRLPRPRPRPDGCPRP | -0.229
81 | RRIRDRPPRLPRPRPRPAICPRP | 0.391
82 | RRIRPRPPRLPRPRPRPAWIPRP | 0.0812
83 | RRIRKRPPRLPRPRPRPVALPRP | -0.0167
84 | RRIRCRPPRLPRPRPRPKIDPRP | -0.0573
85 | RRIRNRPPRLPRPRPRPQNWPRP | -0.146
86 | RRIRQRPPRLPRPRPRPMSPPRP | -0.11
87 | RRIRERPPRLPRPRPRPWWHPRP | -0.523
88 | RRIRKRPPRLPRPRPRPIWNPRP | -0.0253
89 | RRIRGRPPRLPRPRPRPYIYPRP | -0.13
90 | RRIRWRPPRLPRPRPRPVDKPRP | -0.0524
91 | RRIRLRPPRLPRPRPRPRHCPRP | 0.232
92 | RRIRPRPPRLPRPRPRPLFGPRP | 0.142
93 | RRIRERPPRLPRPRPRPEEGPRP | -0.007
94 | RRIRRRPPRLPRPRPRPIIHPRP | -0.584
95 | RRIRERPPRLPRPRPRPDQFPRP | -0.154
96 | RRIRQRPPRLPRPRPRPCVYPRP | 4.4
97 | RRIRTRPPRLPRPRPRPMMYPRP | -0.00147
98 | RRIRQRPPRLPRPRPRPKMWPRP | 1
99 | RRIRRRPPRLPRPRPRPQNPPRP | 0.214
100 | RRIRDRPPRLPRPRPRPSRYPRP | -0.219

Row | Sequence | shrunken log2 fold change
101 | RRIRARPPRLPRPRPRPCTFPRP | -0.365
102 | RRIRARPPRLPRPRPRPEKIPRP | 0.649
103 | RRIRLRPPRLPRPRPRPMVGPRP | -0.135
104 | RRIRCRPPRLPRPRPRPQCDPRP | -0.264
105 | RRIRTRPPRLPRPRPRPMSGPRP | -0.137
106 | RRIRTRPPRLPRPRPRPPLRPRP | 0.314
107 | RRIRGRPPRLPRPRPRPHSFPRP | 2.05
108 | RRIRPRPPRLPRPRPRPAVWPRP | 0.602
109 | RRIRNRPPRLPRPRPRPNDQPRP | -0.309
110 | RRIRCRPPRLPRPRPRPFGRPRP | -0.207
111 | RRIRKRPPRLPRPRPRPGPSPRP | 2.27
112 | RRIRFRPPRLPRPRPRPEKHPRP | 0.176
113 | RRIRNRPPRLPRPRPRPGKSPRP | -0.0101
114 | RRIRRRPPRLPRPRPRPDNWPRP | 0.000556
115 | RRIRYRPPRLPRPRPRPWCWPRP | -0.153
116 | RRIRNRPPRLPRPRPRPDWCPRP | 0.0226
117 | RRIRSRPPRLPRPRPRPLSAPRP | 0.234
118 | RRIRWRPPRLPRPRPRPHIFPRP | -0.494
119 | RRIRGRPPRLPRPRPRPKHIPRP | -0.00571
120 | RRIRCRPPRLPRPRPRPPMRPRP | 0.945
121 | RRIRQRPPRLPRPRPRPCPVPRP | -0.477
122 | RRIRHRPPRLPRPRPRPKCQPRP | -0.0621
123 | RRIRQRPPRLPRPRPRPRSGPRP | 0.162
124 | RRIRMRPPRLPRPRPRPELWPRP | 3.17
125 | RRIRIRPPRLPRPRPRPCQIPRP | -0.0429
